Positions count from the first letter of the chain named.
B1: mAb24959N (antibody, human IgG4 S228P, kappa, V domains shown)
VH: QLQLLESGPGLVKPSETLSLICTVSGGSIRGSSYYWGWIRQPPEKGLEWIGSIYSSGSTYYNPSLKSRVTISADTSKNQFSLKLSSVTAADTAVYYCARHGGITAVQLEFDPWGQGTLVTVSS
VL: DIQMTQSPSSLSASVGDRVTITCQASQDISNYLKWYQQKPGKAPKILIHDASNLEIGVPSRFSGSGAGTDFIFTISSLQPEDIGTYYCQQYDNLPITFGQGTRLEIKR
B2: mAb29814P (antibody, human IgG4 S228P, kappa, V domains shown)
VH: QVQLVESGGGVVQPGRSLRLSCVASGFTFSSYGMHWVRQAPGKGLEWVAVIWYVGSNKYYGDSVKGRFTISRDNSKNTLYLQMNSLRAEDTAVYYCARDLIADRPGYYYNGMDVWGQGTTVTVSS
VL: EIVMTQSPVTLFVSPGERATLSCRASQSVNTNLAWYQQQPGQAPRLLIHGASTRPTGVPARFSGSGSGTEFTLIISSLQSEDFAVYYCQQYNNWPPWTFGQGTKVEIKR
B3: mAb28075P (antibody, human IgG4 S228P, kappa, V domains shown)
VH: EVQLVESGGGVVQPGGSLRLSCAASGFTFDDYAMHWVRQAPGKGLEWVSLISGDGDNTYYADSVKGRFTISRDNNKNSLYLQMNSLRTEDTAFYYCAKELIFGKVLHDFYYYVMDVWGQGTTVTVSS
VL: not shown
B4: mAb24956N (antibody, human IgG4 S228P, kappa, V domains shown)
VH: EVQLVESGGGVVQPGGSLRLSCAASGFTFDDYAMYWVRQAPGKGLEWVSLISGDGGSMYYADSVKGRFTISRDNSKNSLYLQMNSLRTEDTALYYCAKDMIFYAFWSGYGSSDYYYYVMDVWGQGTTVTVYS
VL: not shown
B5: mAb24958N (antibody, human IgG4 S228P, kappa, V domains shown)
VH: QVQLQESGPGLVKPSQTLSLTCTVSGGSIISDGYYWSWIRQHPGKGLEWIGYVDYSGNTYYNPSLKSRIIMSVDTSKNQFSLKLTSVTAADTAVYFCVREGPLRDAFEIWGQGTMVTVSS
VL: DIQMTQSPSSLSASVGDRVTITCRTSQSISRYLNWYQQKPGKAPKLLIFAASSLQSGVPSRFSGSGSGADFTLTISSLQPEDFATYYCQQSYSTPPITFGQGTRLEIKR
B6: mAb28105P (antibody, human IgG4 S228P, kappa, V domains shown)
VH: EVQLVESGGGVVQPGGSLRLSCEASGFIFDDYAMHWVRQAPGKGLEWVSLISGDGDIIYYADSVKGRFTISRDNSKNSLYLQMNSLIIEDTALYYCAKDWVFGVVMTHYWYFGLDVWGQGTTVTVSS
VL: B5 VL with V15E, T25A, R31T, F49Y, A50G, A69T, R104K, L105V
B7: mAb29822P2 (antibody, human IgG4 S228P, kappa, V domains shown)
VH: EVQLVESGGGVVQPGGSLRLSCAVSGFTFDDYAMHWVRQAPGKGLEWVSLISGDGGSTHYADSVKGRFTISRDNSKNSLYLQMNSLRTGDTALYYCAKDMIFAVVITDYHYYGMDVWGQGTTVTVSS
VL: not shown
B8: mAb28113P (antibody, human IgG4 S228P, kappa, V domains shown)
VH: EVQLVESGGGVVQPGGSLRLSCAASGFTFDDYAMHWVRQAPGKGLEWVSLISGGGGGTYYSDSVKGRFTISRDTSKDSLYLQMNSLRTEDTALYYCAKDMVFGVVTPYYYFALDVWGQGTTVTVSS
VL: not shown
B9: mAbm24955N (antibody, V domains shown)
VH: EVQLVESGGGVVQPGGSLRLSCVASGFTFDDYAMYWVRQVPGKDLEWVSLISGDGDITYYVDSVKGRFTVSRDNNKNSLYLQMKSLRVEDTALYYCAKDMIYYASWSGYGSSDYYYYVMDVWGQGTTVTVSS
VL: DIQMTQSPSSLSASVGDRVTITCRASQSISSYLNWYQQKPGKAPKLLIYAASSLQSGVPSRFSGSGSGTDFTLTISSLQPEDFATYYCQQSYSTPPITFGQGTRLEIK
notes: the prefix mAbm is not explained (perhaps a mouse constant region)

Target: T1, HLA-A2 on T2 cells pulsed with NY-ESO-1:157-165, wt peptide (C165) (human)
T1 construct: also called T2 Pulsed NY-ESO-1_157-165
Assay: flow cytometry, peptide-pulsed T2 cells

Point of comparison: B1, EC50 1.1 nM. Against it:
- B2 — the same, 1.1 nM
- B3 — 2.9-fold lower, 0.38 nM
- B4 — 2.3-fold lower, 0.47 nM
- B5 — 17-fold higher, 19 nM
- B6 — 1.6-fold higher, 1.8 nM
- B7 — 4.9-fold higher, 5.4 nM
- B8 — 1.8-fold lower, 0.6 nM

Target: T1, HLA-A2 on T2 cells pulsed with …
Assay: flow cytometry, 10 ug/ml, pulsed T2 cells

Point of comparison: B4, “ratio of MFI, pulsed to unpulsed” value 125 ratio. Against it:
- B1 — higher, 131 ratio
- B2 — lower, 124 ratio
- B3 — lower, 58.8 ratio
- B5 — lower, 98.6 ratio
- B6 — higher, 126 ratio
- B7 — lower, 36.7 ratio
- B8 — lower, 115 ratio

Target: HLA-A2 on T2 cells pulsed with BCL9L: 1351-1359 peptide (human)
Assay: flow cytometry, 10 ug/ml, pulsed T2 cells

Point of comparison: B1, “ratio of MFI, pulsed to unpulsed” value 80.7 ratio. Against it:
- B2 — higher, 150 ratio
- B3 — lower, 1.5 ratio
- B7 — lower, 0.8 ratio
- B8 — lower, 1 ratio

Target: HLA-A2 on T2 cells pulsed with GRID1: 7-15 peptide (human)
Assay: flow cytometry, 10 ug/ml, pulsed T2 cells

Point of comparison: B7, “ratio of MFI, pulsed to unpulsed” value 0.7 ratio. Against it:
- B1 — higher, 3.2 ratio
- B2 — higher, 1.6 ratio
- B3 — higher, 1.4 ratio
- B4 — higher, 1 ratio
- B5 — the same, 0.7 ratio
- B6 — the same, 0.7 ratio
- B8 — higher, 0.9 ratio

Target: HLA-A2 on T2 cells pulsed with EARS2: 306-314 peptide (human)
Assay: flow cytometry, 10 ug/ml, pulsed T2 cells

Point of comparison: B6, “ratio of MFI, pulsed to unpulsed” value 0.6 ratio. Against it:
- B1 — the same, 0.6 ratio
- B2 — the same, 0.6 ratio
- B3 — lower, 0.5 ratio
- B4 — the same, 0.6 ratio
- B5 — the same, 0.6 ratio
- B7 — lower, 0.5 ratio
- B8 — lower, 0.5 ratio

Target: HLA-A2 on T2 cells pulsed with ZDHHC1 (376-384) peptide (human)
Assay: flow cytometry, 10 ug/ml, pulsed T2 cells

Point of comparison: B6, “ratio of MFI, pulsed to unpulsed” value 0.5 ratio. Against it:
- B1 — lower, 0.4 ratio
- B2 — higher, 0.6 ratio

Target: HLA-A2 on T2 cells pulsed with ITCH (807-815) peptide (human)
Assay: flow cytometry, 10 ug/ml, pulsed T2 cells

Point of comparison: B4, “ratio of MFI, pulsed to unpulsed” value 0.9 ratio. Against it:
- B1 — the same, 0.9 ratio
- B2 — the same, 0.9 ratio
- B3 — higher, 1 ratio
- B5 — higher, 1 ratio
- B6 — higher, 1 ratio
- B7 — lower, 0.8 ratio
- B8 — the same, 0.9 ratio

Target: HLA-A2 on T2 cells pulsed with MAGEH1: 90-98 peptide (human)
Assay: flow cytometry, 10 ug/ml, pulsed T2 cells

Point of comparison: B5, “ratio of MFI, pulsed to unpulsed” value 0.5 ratio. Against it:
- B1 — lower, 0.4 ratio
- B2 — lower, 0.4 ratio
- B3 — the same, 0.5 ratio
- B6 — the same, 0.5 ratio

Target: HLA-A2 on T2 cells pulsed with FBXL22: 4-12 peptide (human)
Assay: flow cytometry, 10 ug/ml, pulsed T2 cells

Point of comparison: B8, “ratio of MFI, pulsed to unpulsed” value 0.5 ratio. Against it:
- B1 — the same, 0.5 ratio
- B2 — the same, 0.5 ratio
- B3 — the same, 0.5 ratio
- B4 — the same, 0.5 ratio
- B5 — the same, 0.5 ratio
- B6 — the same, 0.5 ratio

Target: HLA-A2 on T2 cells pulsed with URB1: 1853-1861 peptide (human)
Assay: flow cytometry, 10 ug/ml, pulsed T2 cells

Point of comparison: B2, “ratio of MFI, pulsed to unpulsed” value 7.9 ratio. Against it:
- B1 — lower, 0.6 ratio
- B3 — lower, 0.5 ratio
- B4 — lower, 0.5 ratio
- B5 — lower, 0.6 ratio
- B6 — lower, 0.6 ratio
- B8 — lower, 0.6 ratio

Target: T2, monomeric HLA-A2:NY-ESO-1(156-165) (V at position 165) peptide complex, 2906
T2 construct: also called soluble HLA-A2:NY-ESO-1 peptide complex
Assay: SPR, 25 C, antibody captured, monomeric complex injected;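 further: antibody held on sensor chip via immobilized anti-human or anti-mouse Fc antibody, rate constants derived by fitting sensorgrams to a 1:1 binding model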

Point of comparison: B9, Kd 2.27 nM. Against it:
- B1 — 1.8-fold lower, 1.23 nM
- B3 — 5.9-fold lower, 0.388 nM
- B4 — 5.9-fold lower, 0.387 nM
- B5 — within 1.5-fold, 2.77 nM
- B6 — 5.9-fold lower, 0.386 nM
- B8 — 3.6-fold lower, 0.639 nM

For B1, the koff was 0.000517 s⁻¹.

For B1, the kon was 421000 M⁻¹ s⁻¹.

Point of comparison: B9, t½ 9 min. Against it:
- B1 — 2.5-fold higher, 22.3 min
- B3 — 3.6-fold higher, 32.8 min
- B4 — 3.5-fold higher, 31.6 min
- B5 — 7.3-fold higher, 65.4 min
- B6 — 7-fold higher, 62.8 min
- B8 — 3.9-fold higher, 35.5 min

Target: T2, monomeric HLA-A2:NY-ESO-1(156-165) (V …)
Assay: SPR, 37 C, antibody captured, monomeric complex injected

Point of comparison: B8, Kd 1.94 nM. Against it:
- B3 — 1.9-fold lower, 1 nM
- B6 — 3.3-fold lower, 0.586 nM

Point of comparison: B6, t½ 21.3 min. Against it:
- B3 — 2.3-fold lower, 9.1 min
- B8 — 2.7-fold lower, 7.9 min

Reference: patent US20220251215A1 (Regeneron, published 2022)
